Experimental findings from article PMC5148593, “Using the Amino Acid Network to Modulate the Hydrolytic Activity of β-Glycosidases” (PLoS ONE, 2016) are described below.

Substrate in this data set: O=[N+]([O-])c1ccc(O[C@@H]2O[C@H](CO)[C@@H](O)[C@H](O)[C@H]2O)cc1
Description: purified protein. Format: biochemical, Spodoptera frugiperda. To be noted: 100 mM sodium citrate-sodium phosphate pH 6.0, 30°C.

B1: Sfβgly (Spodoptera frugiperda) (protein)
chain: QQRRFPDDFLFGTATASYQIEGAWDEDGKGENIWDYMVHNTPEVIRDLSNGDIAADSYHNYKRDVEMMRELGLDAYRFSLSWARILPTGMANEVNPAGIAFYNNYIDEMLKYNITPLITLYHWDLPQKLQELGGFANPLISDWFEDYARVVFENFGDRVKMFITFNEPREICFEGYGSATKAPILNATAMGAYLCAKNLVTAHAKAYYLYDREFRPVQGGQCGITISVNWFGPATPTPEDEMAAELRRQGEWGIYAHPIFSAEGGFPKELSDKIAEKSAQQGYPWSRLPEFTEEEKAFVRGTSDLIGVNHYTAFLVSATERKGPYPVPSLLDDVDTGSWADDSWLKSASAWLTLAPNSIHTALTHLNNLYNKPVFYITENGWSTDESRENSLIDDDRIQYYRASMESLLNCLDDGINLKGYMAWSLMDNFEWMEGYIERFGLYEVDFSDPARTRTPRKAAFVYKHIIKHRVVDYEYEPETMVMTIDEGH
notes: kinetics: gene in pAE plasmid, E. coli NovaBlue (DE3), Ni-NTA purified (His tag kept); mature protein 21-509 (borders printed for the P. pastoris pPIC9 crystal construct, 5CG0, glycosylated at N206); monomer-dimer equilibrium
In the case of B1, the Km turned out to be 2300 µM and the kcat turned out to be 0.61 s⁻¹.

What is called Km is the substrate concentration at which the rate is half of its maximum. For orientation: kcat means the maximal rate divided by the concentration of active sites.
